Assay results: patent publication US20110059060A1

Biological target: thuricin CD (Bacillus thuringiensis DPC 6431)

**Q.** With pepsin (enzyme) as the substance, how does the antimicrobial activity after enzyme treatment (well diffusion assay, C. difficile ATCC 43593) (% reduction in activity) read?
**A.** 50

**Q.** With trypsin (enzyme) as the substance, how does the antimicrobial activity after enzyme treatment (well diffusion assay, C. difficile ATCC 43593) (% reduction in activity) read?
**A.** 20
